Reference: patent US20020197702

What was measured:
[1] = molecular target: T1, membrane derived procaspase-3, P42574
T1 chain: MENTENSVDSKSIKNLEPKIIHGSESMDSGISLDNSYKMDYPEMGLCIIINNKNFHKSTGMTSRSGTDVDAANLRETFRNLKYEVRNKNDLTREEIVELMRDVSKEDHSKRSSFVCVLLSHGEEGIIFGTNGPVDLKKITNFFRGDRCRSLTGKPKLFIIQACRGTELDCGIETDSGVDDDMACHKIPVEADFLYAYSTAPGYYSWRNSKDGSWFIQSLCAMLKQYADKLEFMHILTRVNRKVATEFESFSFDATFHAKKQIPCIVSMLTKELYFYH

[2] = molecular target: T2, DEVD-amc (Acetyl-Asp-Glu-Val-Asp-aminomethylcoumarin)
T2 chain: DEVD

Row | Protein | activation of DEVD-AMC hydrolysis activity in heavy membranes [1] | time course of activation of DEVD-AMC hydrolysis activity [1] | KM for DEVD-AMC hydrolysis [2] | kcat/KM for DEVD-AMC hydrolysis [2]
1 | recombinant murine caspase-1 (protein) NKEDGTFPGLTGTLKFCPLEKAQKLWKENPSEIYPIMNTTTRTRLALIICNTEFQHLSPRVGAQVDLREMKLLLEDLGYTVKVKENLTALEMVKEVKEFAACPEHKTSDSTFLVFMSHGIQEGICGTTYSNEVSDILKVDTIFQMMNTLKCPSLKDKPKVIIIQACRGEKQGVVLLKDSVRDSEEDFLTDAIFEDDGIKKAHIEKDFIAFCSSTPDNVSWRHPVRGSLFIESLIKHMKEYAWSCDLEDIFRKVRFSFEQPEFRLQMPTADRVTLTKRFYLFPGH | Treatment with recombinant caspase-1 causes a rapid, robust activation of the membrane caspase | The lack of a detectable time lag in the time course plot |  | 
2 | affinity purified membrane derived caspase-3 from 697 cell heavy membranes (protein) chain 1: KNLEPKIIHGSESMDSGISLDNSYKMDYPEMGLCIIINNKNFHKSTGMTSRSGTDVDAANLRETFRNLKYEVRNKNDLTREEIVELMRDVSKEDHSKRSSFVCVLLSHGEEGIIFGTNGPVDLKKITNFFRGDRCRSLTGKPKLFIIQACRGTELDCGIETD chain 2: SGVDDDMACHKIPVDADFLYAYSTAPGYYSWRNSKDGSWFIQSLCAMLKQYADKLEFMHILTRVNRKVATEFESFSFDATFHAKKQIPCIVSMLTKELYFYH |  |  | The observed KM value for the purified caspase (10 uM) | must be >=400,000 M^-1sec^-1
3 | r-caspase-3 (His)6 (protein) chain 1: SGISLDNSYKMDYPEMGLCIIINNKNFHKSTGMTSRSGTDVDAANLRETFRNLKYEVRNKNDLTREEIVELMRDVSKEDHSKRSSFVCVLLSHGEEGIIFGTNGPVDLKKITNFFRGDRCRSLTGKPKLFIIQACRGTELDCGIETD chain 2: SGVDDDMACHKIPVEADFLYAYSTAPGYYSWRNSKDGSWFIQSLCAMLKQYADKLEFMHILTRVNRKVATEFESFSFDATFHAKKQIPCIVSMLTKELYFYHHHHHHH |  |  |  | the kcat/KM value for the recombinant caspase-3 (1,200,000 M^-1sec^-1)
